Source: patent US20020064528A1 (published 2002)

Tests used:
[1] = target: T1, soluble fusion protein KDR-AP (human, UniProt P35968 20-764); experiment: BIAcore, KDR-AP immobilized (Table 2)
T1 construct: extracellular domain; Expressed in NIH 3T3 cells; also called KDR-alkaline phosphatase fusion protein; immobilized KDR; not shown: human placental alkaline phosphatase (AP) of the vector AP-Tag
Experimental: Sensorgrams were obtained at each concentration and were evaluated using a program, BIA Evaluation 2.0, to determine the rate constants kon and koff. Kd was calculated as the ratio of rate constants koff/kon.
*All rates are determined by surface plasmon resonance using BIAcore system and are mean of at least three separate determinations.

[2] = target: KDR expressed on the surface of HUVEC (human, UniProt P35968 20-1356); experiment: cell-based or functional assay
KDR expressed on the surface of HUVEC, sequence (P35968 20-1356): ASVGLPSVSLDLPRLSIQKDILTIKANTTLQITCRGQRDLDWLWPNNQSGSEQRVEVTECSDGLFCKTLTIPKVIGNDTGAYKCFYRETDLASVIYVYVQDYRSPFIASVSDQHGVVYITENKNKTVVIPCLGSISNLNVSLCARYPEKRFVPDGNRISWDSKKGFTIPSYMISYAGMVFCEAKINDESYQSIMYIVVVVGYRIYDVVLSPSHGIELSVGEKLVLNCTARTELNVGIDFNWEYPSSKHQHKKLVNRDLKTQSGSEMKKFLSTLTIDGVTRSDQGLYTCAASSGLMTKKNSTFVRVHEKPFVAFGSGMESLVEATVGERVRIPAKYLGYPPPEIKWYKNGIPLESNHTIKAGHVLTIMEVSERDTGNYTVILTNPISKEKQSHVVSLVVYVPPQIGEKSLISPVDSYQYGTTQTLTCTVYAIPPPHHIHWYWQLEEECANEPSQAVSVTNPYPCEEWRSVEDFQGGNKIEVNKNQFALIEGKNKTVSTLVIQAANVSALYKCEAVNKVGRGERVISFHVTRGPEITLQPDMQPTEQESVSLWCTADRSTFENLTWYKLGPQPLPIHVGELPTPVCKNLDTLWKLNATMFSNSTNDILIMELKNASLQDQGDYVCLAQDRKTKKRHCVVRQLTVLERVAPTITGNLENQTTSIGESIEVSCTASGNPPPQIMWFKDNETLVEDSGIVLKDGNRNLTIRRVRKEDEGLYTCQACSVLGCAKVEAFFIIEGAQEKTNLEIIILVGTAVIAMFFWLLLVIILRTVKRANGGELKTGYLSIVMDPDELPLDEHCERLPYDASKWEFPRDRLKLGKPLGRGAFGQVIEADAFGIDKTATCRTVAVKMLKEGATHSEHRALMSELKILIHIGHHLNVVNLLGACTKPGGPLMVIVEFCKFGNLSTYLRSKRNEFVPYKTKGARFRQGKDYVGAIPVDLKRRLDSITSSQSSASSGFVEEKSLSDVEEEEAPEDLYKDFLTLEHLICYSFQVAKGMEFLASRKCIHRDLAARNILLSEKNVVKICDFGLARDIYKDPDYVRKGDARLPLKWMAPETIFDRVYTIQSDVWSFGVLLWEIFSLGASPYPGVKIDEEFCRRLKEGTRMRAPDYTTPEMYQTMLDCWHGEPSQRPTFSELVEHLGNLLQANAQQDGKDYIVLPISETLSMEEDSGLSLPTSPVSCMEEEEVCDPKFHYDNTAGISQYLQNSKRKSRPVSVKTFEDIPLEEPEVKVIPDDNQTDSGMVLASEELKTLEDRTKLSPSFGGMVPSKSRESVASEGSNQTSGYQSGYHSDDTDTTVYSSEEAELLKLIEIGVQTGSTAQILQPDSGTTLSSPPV

[3] = target: T1, soluble fusion protein KDR-AP; experiment: direct binding ELISA on KDR-coated plate, detected by anti-E tag antibody-HRP

T1 sequence (P35968 20-764): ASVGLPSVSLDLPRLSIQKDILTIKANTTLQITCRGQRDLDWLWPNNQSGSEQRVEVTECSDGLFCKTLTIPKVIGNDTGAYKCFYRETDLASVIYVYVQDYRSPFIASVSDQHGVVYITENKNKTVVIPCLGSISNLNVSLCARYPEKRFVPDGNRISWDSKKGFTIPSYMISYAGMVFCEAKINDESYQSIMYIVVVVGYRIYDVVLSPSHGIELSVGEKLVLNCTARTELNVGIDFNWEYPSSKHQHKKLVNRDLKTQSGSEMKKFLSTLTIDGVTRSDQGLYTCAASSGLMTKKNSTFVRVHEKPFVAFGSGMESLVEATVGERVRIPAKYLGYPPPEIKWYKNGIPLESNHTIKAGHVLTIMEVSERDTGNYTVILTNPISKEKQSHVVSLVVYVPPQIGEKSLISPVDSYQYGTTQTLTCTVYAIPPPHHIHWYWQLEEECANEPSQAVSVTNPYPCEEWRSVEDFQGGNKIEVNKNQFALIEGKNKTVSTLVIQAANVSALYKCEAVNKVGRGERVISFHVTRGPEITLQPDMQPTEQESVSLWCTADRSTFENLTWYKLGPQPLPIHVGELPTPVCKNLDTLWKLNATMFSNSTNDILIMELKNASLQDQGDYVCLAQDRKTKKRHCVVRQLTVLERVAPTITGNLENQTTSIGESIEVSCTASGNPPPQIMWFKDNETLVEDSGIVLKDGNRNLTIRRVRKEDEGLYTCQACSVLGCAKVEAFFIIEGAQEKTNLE

B1: chimeric anti-KDR antibody c-p1C11 (antibody, V domains shown)
VH: QVKLQQSGAELVGSGASVKLSCTTSGFNIKDFYMHWVKQRPEQGLEWIGWIDPENGDSDYAPKFQGKATMTADSSSNTAYLQLSSLTSEDTAVYYCNAYYGDYEGYWGQGTTVTVSS
VL: DIELTQSPAIMSASPGEKVTITCSASSSVSYMHWFQQKPGTSPKLWIYSTSNLASGVPARFSGSGSGTSYSLTISRMEAEDAATYYCQQRSSYPFTFGSGTKLEIK
notes: Bivalent chimeric IgG1/kappa with the mouse variable domains of p1C11; expressed in COS cells and purified on Protein G. The leader peptide added for secretion is not part of the mature protein; also called Chimeric-p1C11; c-p1C11 IgG
fold higher affinity than the parent scFv [1]: ~2.5 fold

B2: scFv p1C11 (scFv)
chain: QVKLQQSGAELVGSGASVKLSCTTSGFNIKDFYMHWVKQRPEQGLEWIGWIDPENGDSDYAPKFQGKATMTADSSSNTAYLQLSSLTSEDTAVYYCNAYYGDYEGYWGQGTTVTVSSGGGGSGGGGSGGGGSDIELTQSPAIMSASPGEKVTITCSASSSVSYMHWFQQKPGTSPKLWIYSTSNLASGVPARFSGSGSGTSYSLTISRMEAEDAATYYCQQRSSYPFTFGSGTKLEIK
EC50, antibody concentration that inhibited 50% of VEGF-stimulated mitogenesis of HUVEC ([3H]-TdR incorporation) [2]: ~5 nM | EC50 (read off the curve) [3]: ~0.8 nM
